The values that follow come from US6403087.

Assay [1] concerns the target surface TNF receptors on HT29 cells. As to the kind of experiment: cell-based or functional assay.
For assay [2], the target named is murine surface LT ligand on PMA-activated TIMI-4 cells (mouse) (UniProt P09225). As to the kind of experiment: FACS on TIMI-4 cells; mAb at 0.3 µg/ml preincubated, washed, then 1 µg/ml mLT-β-R-Fc.
Assay [3] shares this target. As to the kind of experiment: FACS on TIMI-4 cells; mAb at 30.0 µg/ml preincubated, washed, then 1 µg/ml mLT-β-R-Fc.
For assay [4] the target is unchanged. As to the kind of experiment: FACS on TIMI-4 cells; mAb at 0.01 µg/ml preincubated, washed, then 1 µg/ml mLT-β-R-Fc.
Assay [5] shares this target. The assay is described as follows: FACS on TIMI-4 cells; mAb at 0.1 µg/ml preincubated, washed, then 1 µg/ml mLT-β-R-Fc.
The target is the same in assay [6]. The assay is described as follows: FACS on TIMI-4 cells; mAb at 3.0 µg/ml preincubated, washed, then 1 µg/ml mLT-β-R-Fc.
Assay [7] has the same target. The assay is described as follows: FACS on TIMI-4 cells; mAb at 10.0 µg/ml preincubated, washed, then 1 µg/ml mLT-β-R-Fc.
For assay [8] the target is unchanged. As to the kind of experiment: FACS on TIMI-4 cells; mAb at 100.0 µg/ml preincubated, washed, then 1 µg/ml mLT-β-R-Fc.
Assay [9] shares this target. The assay is described as follows: FACS on TIMI-4 cells; mAb at 1.0 µg/ml preincubated, washed, then 1 µg/ml mLT-β-R-Fc.
Assay [10] shares this target. As to the kind of experiment: FACS on TIMI-4 cells; mAb at 0.03 µg/ml preincubated, washed, then 1 µg/ml mLT-β-R-Fc.

Sequence of murine surface LT ligand on PMA-activated TIMI-4 cells (mouse) (P09225 34-202, chain 1 of 2): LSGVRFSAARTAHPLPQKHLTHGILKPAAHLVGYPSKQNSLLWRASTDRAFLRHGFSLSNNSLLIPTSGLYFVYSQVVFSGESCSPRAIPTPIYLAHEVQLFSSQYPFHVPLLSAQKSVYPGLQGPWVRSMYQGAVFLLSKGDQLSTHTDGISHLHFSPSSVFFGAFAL
Sequence of murine surface LT ligand on PMA-activated TIMI-4 cells (mouse) (P41155 whole entry, chain 2 of 2, further chain): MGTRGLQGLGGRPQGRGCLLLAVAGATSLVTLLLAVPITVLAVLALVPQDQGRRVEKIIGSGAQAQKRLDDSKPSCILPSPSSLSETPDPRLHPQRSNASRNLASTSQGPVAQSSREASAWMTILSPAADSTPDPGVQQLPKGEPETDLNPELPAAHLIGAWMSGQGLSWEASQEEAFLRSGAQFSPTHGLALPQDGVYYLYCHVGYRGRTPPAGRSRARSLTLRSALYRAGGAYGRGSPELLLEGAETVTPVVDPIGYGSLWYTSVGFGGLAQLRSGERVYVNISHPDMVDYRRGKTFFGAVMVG
Sequence of hTNF (P01375 77-233 limits assumed): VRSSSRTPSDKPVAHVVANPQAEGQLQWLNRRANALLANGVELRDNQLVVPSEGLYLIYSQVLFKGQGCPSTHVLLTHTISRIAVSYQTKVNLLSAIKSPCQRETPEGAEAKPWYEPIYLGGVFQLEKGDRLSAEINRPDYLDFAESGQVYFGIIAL

As for “hLT-α (from UniProt P01374 35-205) (ligand)”, in assay [1], the Concentration of Cytotoxic Agent (ng/ml) Resulting in 50% Growth Inhibition of HT29 cells, in the presence of 5 µg/ml hu-IgG control is 3 ng/mL.

As for “hTNF (from UniProt P01375 77-233) (ligand)”, in assay [1], the Concentration of Cytotoxic Agent (ng/ml) Resulting in 50% Growth Inhibition of HT29 cells, in the presence of 5 µg/ml hu-IgG control was 0.08 ng/mL.

In the case of hamster anti-mLT-α mAb AF.B3 (antibody), the % Inh (Percent Inhibition) of mLT-β-R-Fc binding was 2% in assay [2]; 0% in assay [3]; 2% in [4]; 0% in [5]; 0% in assay [6]; 0% in assay [7]. For the same substance, the % Inh (Percent Inhibition) of mLT-β-R-Fc binding in [8], in assay [9] and in [10] was 0% each time. Besides, the MFCI (Mean Fluorescence Channel No.) of bound mLT-β-R-Fc in assay [2] was determined as 84 channel no; in [3] it was 94 channel no; in assay [4], 84 channel no; in [5], 86 channel no; in [6], 88 channel no; in assay [7], 95 channel no. For the same substance, the MFCI (Mean Fluorescence Channel No.) of bound mLT-β-R-Fc in assay [8] was determined as 92 channel no; in assay [9], 89 channel no; in [10], 86 channel no.

For “hamster anti-mouse LT-α/β mAb BB.F6 (antibody)”, the % Inh (Percent Inhibition) of mLT-β-R-Fc binding in assay [2] was 62%; in [3], 95%; in assay [4], 18%; in assay [5], 44%; in [6] it was 86%; in assay [7], 94%. Besides, the % Inh (Percent Inhibition) of mLT-β-R-Fc binding in assay [8] was found to be 98%; in assay [9], 71%; in assay [10], 23%. Further, the MFCI (Mean Fluorescence Channel No.) of bound mLT-β-R-Fc came to 36 channel no in assay [2]; 10 channel no in assay [3]; 71 channel no in assay [4]; 51 channel no in [5]; 17 channel no in [6]; 11 channel no in assay [7]. Besides, the results for the MFCI (Mean Fluorescence Channel No.) of bound mLT-β-R-Fc in [8], in assay [9] and in [10] were 8 channel no, 29 channel no and 67 channel no, respectively.
